Some results are limits rather than exact numbers.

The nature of this data set: soluble fraction after stress (log2 fold change); higher = more stays soluble; pooled small domains, quantitative proteomics. The settings on record: stress: pH 4. The procedure, abridged: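 Pooled custom libraries of small protein domains were stressed at pH 4 and then measured by high-throughput quantitative proteomics. The fold change in the amount of each domain that stays soluble after the acid stress serves as a measure of aggregation propensity. Fold changes are given on a log2 scale, and higher values mean more of the domain stayed soluble.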
For the sequence “HMAAAQILRAAVLRVPAEETMRFVTETPELRRYLGASLGPTAAIVRPGQEQNLAAALQSHGILVEFDE”, the “soluble fraction (log2)” value came out at 0.106.
As for “HMAADLIGLEARVTLPLTEDQRGFIETSVRGSLVRRAALSASGRLDRGQRVVILRSEGTTLIVDAL”, the “soluble fraction (log2)” value was -0.372.
The figure for “HMAADRRKAERPLIDGQAVMDRFEVGPGPMVGKALKFLLALKRAEPDLDLAGTEERLDAWWNEQL” is 0.289; for “HMAAEFERKNGIVYFFHSSEKPHLNYPHVHARYGEDTISISLRDFTVIGSFSSKKKQKEAVEYVKNK” it is -0.352.
With “HMAAEPDQQLIKPASDPVLRTMKIEELMKMSEQVKIQMSKAAKNFDYLEAARLRDEHFALENLIKLRS” the figure was 0.156; with “HMAAGELSGEALIALIERHPMALSALATTFGHSESDLRAFVEPLARQGRLRLFESQGTLFVGGIG”, 0.00392.
With “HMAAHHIILEEREQLSVSGVEEVESFDENTIVMLTNRGTLIVRGEELHIEKLSLDGGDLRVEGSIDSLTYE” the figure was -1.09.
On to “HMAAHWANFLEALRAGRARRVLVARGVEGWLLKELERLGAPYTLVPRIELDTLLRTTHHQGIAAEVE”, for which the “soluble fraction (log2)” value was -0.748.
The figure for “HMAAPELLTVRERQVAALISDGLSNQQIAHRLHLEVTTVKAHIGSIFNRLDMNNRVQIAIWAHDRQLVFS” is 0.0815; for “HMAAQDIILKRNAEQIEAIVKEITDTDVKYRKFTNTEGVTYSIRRSEVFSITYENGTMDLFA” it is 0.206.
On to “HMAAQDLIVKTDASQVEARVLEISPDAVRYKRFSNPDGPTYVLPVAEIRYIRYANGEVEYYA”, for which the “soluble fraction (log2)” value is -0.207.
With “HMAAQLAHVPAVTGRPLAEAQRILADNRLNAQVTQQPVAEPKLDGVVIAQKITEGTRTMRGATVPLIVGKY” the figure was 0.148.
As for “HMAASGTVNSGGDPLRVRADPNTSSQILTKLSDGTQVEVLEQAENGWYKIAHEGISGFVSGEYLVVH”, the “soluble fraction (log2)” value is -0.356.
The figure for “HMAAVAPPVLERIASDLATRFAGTLSPETVDRYVRESYHLLAERAGITRYLPSLTARFAGDRLDA” is -0.208; for “HMAAVEDLPVKSVNGKKYHYYTVQPKESLYSLSHKLGISRQEIIKYNPGVEDGLKAYEDLLFPYTPK” it is -0.419; for “HMAAVSTDEEFAALGIPAEWIPVLKSNGFQTVESLKKVAPGALFNQLGGLRKKNKLEIAMPSLDQVKAWLA” it is -0.278.
The figure for “HMADDFISTLFSEGIIIDTEVKQFAERQGSPLQFVRHIASNLPEPRDIITMGEVRSVMREGA” is -1.04.
With “HMADEEEIMVPQVVGKTYDEAKSELENAGFKVEKNEKTSDKASGTVISQSINGGAKKGTSVTLTVSKGN” the figure was 0.132; with “HMADFYEVLGVERNASSDQIKRAYRKLARELHPDVNLDPVAQNRFKEVTEAYEVLSDPNKRSNFDRG”, -0.0615; with “HMADGEWAEMQRQLTAAGLLVVGRAAQERIQRLSDISPLIEAAQRSNVVMLSERTVDEVLTLVPT”, -0.468.
“HMADGTSIYAEREVLYVTSPTANTAKVYNVSGALVRTMTLSAGQTVRTALPAGFYVVALGNGNTHKVIV”: the “soluble fraction (log2)” value is 0.0275.
Regarding “HMADKSLLELPGLDGDKVSALVTAGVRNVNDLADLATDELVEKTGFDEKTAADLIIAARAVVY”, the “soluble fraction (log2)” value was -0.283.
For “HMADLNQTDIDSITKSVGGVEQYKSLMDWAGKTLSQDAIDSFDDLVNTGNKGSIQLAVNGLVAQYQNDN”, the “soluble fraction (log2)” value turned out to be 0.121.
On to “HMADMKIHLRPYAHDTNRWHVDIRLMHPTAATEIRKRLVAPAGLSEAQARAWGERQVPTILGKALGVI”, for which the “soluble fraction (log2)” value was -0.042.
The figure for “HMADNILPAQTDAIKALATENGFSNESLEKYLIENYGTTIYGLSRNQGIQIINLFQSENPPKP” is -0.207; for “HMADQIIEGILGKEGGYVNNPNDKGGPTRWGITQTTARAYGYSGDMKALPRDTAKAIYLSQYWT” it is -0.218.
With “HMADTPQAYIRQMVQEAGADGIMLSTITDRLRARFKDFKVRDLGYAQMRQYMASTGTYDLEKSGRNFRVHL” the figure was 0.181.
With “HMADTSLDHLGVLVRHASDVDAWAEFFENRGVTLASQPRTHRDGARSFYVDDPDGNRVQVIYHPPI” the figure was -0.81; with “HMADWTETELAALRRAYASGTTRVSYDGKSVDYGSAEDLLSRIRTLQGAASDVAADAVAAVDA”, -0.153.
Take “HMADYSMDDNAWNAKKADIDEWFEANPDFSANKAITDGLFSIGDSQVEMRKRYWASIAGVFAGLPNSPIG”: the “soluble fraction (log2)” value was -1.78.
The figure for “HMAEANTEADFVAIGVRAELLPILQKLGVHTIEQLKGIKATKLFNDIPGMRKKLKLDAVQNPTLQEIEGWL” is -0.393; for “HMAEAPGSVELLAERLRPWWEIHGGEWGSKTKALRFLFGDQAPVAGSYWRALEAAIAQIESTT” it is -0.108; for “HMAEKNALWEEDAVYAADSSALARDGYDAIVRTDKGGKKGYLVVGTGGRERFMPLQTLVMLGYLKK” it is -0.0478.
With “HMAEKRTAIITTARADIRQKPEATAPLAFEAVKDVVLELTDKPADGWVRVKHRDGSTGYIRINQI” the figure was -0.132.
The figure for “HMAELAKAKLDAAVQVALLKAGALDTDYLAYKLQGMDGVALDDKGSLTGWDTTLETLKSQYPTQFA” is -0.388; for “HMAEPTLNERLREALSDPAKLKIAKAIKAKYPIITARDIDTFLNMHEKDIENGADPMDEFEEFFHANY” it is -0.132; for “HMAEPYDEDKVMEHLYIKGKDVVIAHLKHLKEHNEHVWLKKGVEWMQKNQDRLGFDMMEVIYVVHNH” it is -1.18.
As to “HMAEQEELDAIRPDLDGQEIMDILGIKPGREVGAARNFLLELRLDEGPLGYDEAVSRLLTWWAERT”, the “soluble fraction (log2)” value was -1.2.
The figure for “HMAETLLWADAAQEGLNRIVAAQPILVRISAAKRLRDASEQAAKAAGVSTVEIGHVQHASESLQFGDA” is -0.0823.
With “HMAETLRLVGATNLNTLARARHPDDLAARNEFRRAIAQANPALFAGKSKVGSVSLPAGTVLALPPEV” the figure was at least 0.43.
The figure for “HMAEVDDESIKLYDGGYQSNTTKSRLNALLSEFGYDTEHVFQKQFEWFISIFDLTEKAMRTVPFSNGMRL” is -0.257; for “HMAEVGDFTLAELIKVLFNEAGVLKAPVELRNDNTGGLQYRVGAYTDSETGWETIASIADLKGA” it is -1.74.
On to “HMAEWLLVQLTNGNWFYGEVIEKTDATIVLNTDILGKVSIQKLDIRRSISGPLTAAKRQEIEDSERAKD”, for which the “soluble fraction (log2)” value is -0.341.
With “HMAFDDAHYKDMITSYLKKFKKGNRSEIENLIIPKLSEVLVEKQKKDKVKNLLQALRKDNQIRLKGKYWYL” the figure was 0.196; with “HMAFIEADIGKRIKSLRNKKRITLESLAAETGFTKGYLSKVETSEKAPPVSTLGSIARALGVSISTLLGE”, 0.144.
With “HMAFKDDDVQKAYDRYMDRYGELSVLYSDNGLKVDDDLFYKNNIPPNGKFTKEFFDELYELVNMEFINNY” the figure was -0.538; with “HMAFRLPNGYGTIRRLTGNRRKPYVALVNPTQVFDDEKGTSHYKYDLLGTFAEKIDAYNAVMQYHKSPGGL”, -0.223.
With “HMAGAPANLAARLREQILQGAYHDGQRLPAERHLAAEHGVSRGTVREALRLLEQGALLTRKRGSGSYVTYP” the figure was 0.006.
As for “HMAGDVVVEVVGKVRDPQVVTLPKGSRVQDALEAAGGVKPGVNTTDQNLARLLVDGEQIRIGLSS”, the “soluble fraction (log2)” value came to 0.0302.
With “HMAGFGDSLEKMSDAVEALKLLMSTEDARNDQNIQKIARELKDVFNKYRTHLRKSYPDQYDRIKSTL” the figure was -0.62.
“HMAGGNHPTRLELLDSAAHIAERDGTSALTVDAITKSAGHAKGTFYIHFDDRADLLVEMHRR”: the “soluble fraction (log2)” value is -0.323.
With “HMAGIPIHMSQLKQIILLLSQGYPIKGIARETGVSRNTIKGYLQTLTSQDLNVTDALKLENIQLEYLLRSP” the figure was -0.239; with “HMAGLYSLLLVELPMERLPEDLPAIKAAWLKTGDTEAFKVALQAMSSRGWTIAVPGKHRDTQMTQL”, -0.235.
With “HMAGPVLTPEEAEVLRILADHGEMTVDNISAEGKMSAAVVLRGLGVLSAYGLVAPGGPGRWRSE” the figure was 0.00808; with “HMAGTDLSERESEIAMLLLKGYPYKLIASRLYISESTVKSHVQNIYGKLGIHSRTELIEQFSAS”, -0.966.
With “HMAGTPAIVKWFNPTKGFGFVTPKEAGSDALLHASVLAKRGKRWLQEGTLVEVLIEEGPKGLVVSELLTIE” the figure was -0.659.
Regarding “HMAGTRRFELVEGSSSKFWEVTVADGSYTVTYGRIGTAGGSKTTESATAEADAEKLVREKLKKGYQEAGAA”, the “soluble fraction (log2)” value is 0.128.
The figure for “HMAGTRVWSENGQLYVTAAVSGRANVYNVLGKLNRSLTFSAGETKSVSVPAGIYVVSLNNGKAYKVAV” is 0.0936; for “HMAGWIPVEERLPDDLTNPITRDAYVYPVTVDLGDVTDIRYYSFWRGHWYNQGPETMDDLVIAWMLLPEPY” it is -0.178; for “HMAHESYVKEQLLLSLTNHEDPIMQISLIEQLTKMHERNIIHELEKLTVDVQTNEEVKVQAYASLLILS” it is -0.962.
The figure for “HMAHKYYSIMRPVSIGTFPDNGTILGIVNFDTRQMVESIGKMAWGYINYGKPLTEKQISDYELVAE” is 0.361.
With “HMAHLNYQTVDINALIRHSLQLVSQDAQSRGIALQFTPRPELTTISADPDRLNQVLLNLYLNAMQD” the figure was -0.205.
Regarding “HMAHLSPNDAARLVGVSRPLLNQILDEGRITFFETAGGHRKIKLAAVLAYIKERDEVAAQLAAART”, the “soluble fraction (log2)” value is -0.514.
With “HMAHSDEAWSVARRVARELDKILDGAGPRRTALVRAAAELRLSTRQIYNLLARYRADRTVTSLLPRR” the figure was -0.353; with “HMAHSWEAIRVKLQQIIDEEDKTKPLNDDQIKEKLAEAGIPNLARRTVAKYRKLLNIPTARFRKR”, 0.208.
With “HMAIDINKIYSEIKKKIPNQDNHIKEILSIIWRDFNNYQNIKSRSILINGEKSSPKKEIFNIIEDNINIPV” the figure was 0.00852.
The figure for “HMAIDPLLDKGYEQYDKGEFTEAVKSFNRAIEIDPKNAEAHFLRAMTYQGLALSKLAVADLEKAIV” is -0.127; for “HMAIGDYYINASALNVRSGEGTNYRIIGALPQGQKVQVISENSGWSKINYNGQTGYIGTRYLSKTPV” it is 0.22.
As for “HMAIHTSVTEHGEHDLTVRMEMEQVFAIEMAVVSHEQATMLERTFKANAEAIYQKLLGVMTQEYP”, the “soluble fraction (log2)” value was -0.841.

The values above are taken from the domain aggregation screens of Martell et al. (2025).
